# Target: MoKat2 tagged with FLAG or GFP (MoKat2-FLAG and MoKat2-GFP) (Magnaporthe oryzae)
# Experiment: native gel or EMSA
substance,measurement,value
MoKat2 tagged with FLAG or GFP (MoKat2-FLAG and MoKat2-GFP) (enzyme),stoichiometry N,2

# Source: paper PMC10746245
